One molecule from article PMC7666158, “Co-regulation of the transcription controlling ATF2 phosphoswitch by JNK and p38” (Nature Communications, 2020) can be followed below.

Test [1] concerns the target T1, pp-p38 (activated, double-phosphorylated p38alpha) (human, UniProt Q16539 1-360, double-phosphorylated on the activation loop (pp-p38; T180/Y182 as named for the anti-pp-p38 antibody; pY182 in Fig. 5b)).
T1 construct: human p38alpha (MAPK14), phosphorylated form; also called pp-p38α; source: E. coli, co-expressed with constitutively active GST-tagged MAP2Ks, purified
The experiment in a line: in vitro kinase assay fitted with a kinetic model; 5 nM pp-JNK or pp-p38, MBP-ATF2(19-100) substrate 0.5-100 uM, 5 mM ATP, kinase buffer; p-T71 and p-T69/T71 by quantitative dot-blots; binding rates (kon, koff) and reaction rates fitted simultaneously with the BioNetGen model (PyBioNetFit). The conditions noted are these: both partners purified.

Test [2] addresses T1, pp-p38 (activated, …). The test is described as above. The conditions noted are these: both partners purified. The source holds these as a separate data set.

T1 sequence (Q16539 whole entry): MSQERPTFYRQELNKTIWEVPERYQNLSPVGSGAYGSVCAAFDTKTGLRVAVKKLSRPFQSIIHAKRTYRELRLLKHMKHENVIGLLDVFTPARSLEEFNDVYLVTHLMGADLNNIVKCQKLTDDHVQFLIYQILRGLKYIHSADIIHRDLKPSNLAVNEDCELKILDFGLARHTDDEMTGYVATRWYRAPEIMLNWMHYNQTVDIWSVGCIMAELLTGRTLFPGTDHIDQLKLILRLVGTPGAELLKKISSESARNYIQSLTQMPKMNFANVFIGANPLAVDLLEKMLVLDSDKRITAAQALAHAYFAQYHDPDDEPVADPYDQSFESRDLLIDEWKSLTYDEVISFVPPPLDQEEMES

B1: MBP-ATF2(19-100)-WT (domain or fragment, human, UniProt P15336-1 19-100, looked up)
chain: MSDDKPFLCTAPGCGQRFTNEDHLAVHKHKHEMTLKFGPARNDSVIVADQTPTPTRFLKNCEEVGLFNELASPFENEFKKAS
notes: A TEV site lies between MBP and ATF2; also called MBP-ATF2-His6; ATF2 TAD; source: E. coli BL21(DE3), purified (Ni-NTA, maltose resin); not shown: MBP, N-terminal, kept; His6, C-terminal, kept
In the test with pp-p38 (activated, …) [1], B1 returned a koff of 429 s⁻¹ and a kon of 1.72e+07 M⁻¹ s⁻¹. Moreover, the Kd with pp-p38 (activated, …) [2] was ~25 µM.

Broadly, the koff is the first-order rate constant of dissociation. A high value points to fast dissociation. What is called kon is the second-order rate constant of association. Lower therefore signals slower complex formation. By Kd is commonly meant a measure of binding affinity in units of concentration. The low end stands for higher affinity, the high end for lower affinity.
